Test: Relaxivity measurement of BSA conjugates in aqueous solution and in plasma
Assay type: physicochemical
Conditions: relaxivity per mol of gadolinium, calculated from the measured values, +37° C., 20 MHz
Protocol: In this example, the relaxivities of the conjugates from Examples 30-38 were compared with the relaxivities of two comparison substances. As comparison substances, Gd-DTPA (1) with the formula: [drawing 16]
and Gd-GlyMeDOTA (2) with the formula: [drawing 17]
which were reacted in each case with bovine serum albumin (BSA), were used.
The measurements were made in each case in aqueous solution and in plasma at +37° C. and a frequency of 20 MHz. The results are summarized in Table 2 below, whereby the indicated relaxivities per mol of gadolinium were calculated from the measured values: […]

## Gd-GlyMeDOTA [Vergleichssubstanz 2, reference compound]
Aqueous solution
  R1 (H2O): 18.3 L/mmol/s
plasma
  R1 (Plasma): 20.8 L/mmol/s

Source: patent publication US20030206865A1, “Conjugates of macrocyclic metal complexes with biomolecules and their use for the production of agents for NMR diagnosis and radiodiagnosis as well as radiotherapy” (Schering AG, priority 2001, published 2003)
